# From paper PMC4627068 (Nucleic Acids Research, 2015)
# B1: ω2 (homodimeric form of the plasmid pSM19035 ω protein) (natural protein, Streptococcus pyogenes, UniProt Q57468 1-71, looked up)
# chain: MIVGNLGAQKAKRNDTPISAKKDIMGDKTVRVRADLHHIIKIETAKNGGNVKEVMDQALEEYIRKYLPDKL
# Key:
# [1] = biological target: β' subunit of Bacillus subtilis RNAP-σ^A (Bacillus subtilis, UniProt P37871 1-1199); assay: far-Western, overlay or dot blot
# [2] = biological target: the molecule itself; assay: far-Western, overlay or dot blot
# Sequence of β' subunit of Bacillus subtilis RNAP-σ^A (P37871 whole entry): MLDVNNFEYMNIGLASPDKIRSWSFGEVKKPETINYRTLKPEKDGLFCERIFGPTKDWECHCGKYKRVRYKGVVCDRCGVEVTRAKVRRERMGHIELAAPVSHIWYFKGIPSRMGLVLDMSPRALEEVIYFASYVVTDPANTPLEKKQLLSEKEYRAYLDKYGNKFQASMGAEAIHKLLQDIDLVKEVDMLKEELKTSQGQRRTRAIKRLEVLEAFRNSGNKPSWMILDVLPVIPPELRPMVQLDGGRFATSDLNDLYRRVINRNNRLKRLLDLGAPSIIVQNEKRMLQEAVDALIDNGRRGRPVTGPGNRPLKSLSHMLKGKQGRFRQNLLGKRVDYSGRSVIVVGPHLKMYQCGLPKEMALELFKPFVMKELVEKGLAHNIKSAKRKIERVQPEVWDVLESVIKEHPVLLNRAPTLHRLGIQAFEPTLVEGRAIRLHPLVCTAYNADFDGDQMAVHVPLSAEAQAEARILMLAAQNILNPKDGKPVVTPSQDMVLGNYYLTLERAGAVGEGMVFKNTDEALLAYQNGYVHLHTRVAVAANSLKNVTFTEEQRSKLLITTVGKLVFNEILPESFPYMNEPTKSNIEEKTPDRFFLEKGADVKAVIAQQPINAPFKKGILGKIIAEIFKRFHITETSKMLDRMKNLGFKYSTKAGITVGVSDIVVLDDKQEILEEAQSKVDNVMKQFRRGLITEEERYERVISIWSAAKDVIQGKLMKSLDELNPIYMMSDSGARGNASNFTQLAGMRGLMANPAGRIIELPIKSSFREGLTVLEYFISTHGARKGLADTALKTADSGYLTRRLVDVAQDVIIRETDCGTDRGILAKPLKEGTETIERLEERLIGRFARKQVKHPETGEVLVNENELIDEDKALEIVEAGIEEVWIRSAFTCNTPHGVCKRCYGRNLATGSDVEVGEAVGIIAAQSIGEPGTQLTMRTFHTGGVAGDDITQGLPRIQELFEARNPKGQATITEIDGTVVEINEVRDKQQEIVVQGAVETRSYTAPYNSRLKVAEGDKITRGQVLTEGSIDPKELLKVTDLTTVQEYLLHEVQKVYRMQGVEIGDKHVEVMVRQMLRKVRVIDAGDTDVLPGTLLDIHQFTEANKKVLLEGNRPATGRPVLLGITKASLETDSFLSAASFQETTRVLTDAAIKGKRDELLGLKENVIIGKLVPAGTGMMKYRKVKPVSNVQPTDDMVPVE
binder,measurement,setting,value
B1,binding result,[1],binds
same,binding result,[2],binds
